Data as given in patent US11945858B2, “Antibodies and antibody fragments against HNAV1.7 channel and their use in pain and cancer indications” (NATIONAL RESEARCH COUNCIL OF CANADA, priority 2018, dated 2024).
Where “and” joins values, the source holds several entries; their conditions need not be identical. Equal values may be shown once. Entries after “also recorded” stand apart in the source; their conditions may differ.

B1: 1G5: mouse mAb IgG1, k binding both FC5 and DIE3IR, no effect on hNav1.7 currents; negative control; SEQ ID NO: 21 and 27 (antibody, V domains shown)
VH: QVQLQQPGAELVKPGASVKLSCKASGYTFTSYWINWVKQRPGQGLEWIGNIYPGNSNTNYNEKFKSKATLTVDKSSSTAYMQLSSLTSEDSAVYYCARRYYYDYDDAMDYWGQGTSVTVSSAKTTPPSVYPLAP
VL: DIVLTQSPASLAVSLGQRATISCRASESVDSYGNGFMHWYQQKPGQPPKLLIYRASNLESGIPARVSGSGSRTDFTLTINPVEADDVATYYCQQSNEDPWTFGGGTKLEIKRADAAPTVSIFPPSS
modifications: Heavy chain of the 1G5 and 1G9 antibodies without leader sequence; Light chain of the 1G5 and 1G9 antibodies without leader sequence

Experiments:
[1] = tested on: glioblastoma U87MGvIII cells; assay: Soft agar assay, U87MGvIII
[2] = tested on: lung metastasis of prostate cancer; settings: rat, in vivo; cited from earlier work
glioblastoma U87MG cells = assay: Soft agar assay, U87MG
[3] = tested on: ovarian cancer SKOV-3 cells; assay: Soft agar assay, SKOV-3
VHH FC5 = assay: Surface Plasmon Resonance of mAbs, FC5 control; assay type: binding; settings: 25 °C
Chain of VHH FC5 (as listed by the source): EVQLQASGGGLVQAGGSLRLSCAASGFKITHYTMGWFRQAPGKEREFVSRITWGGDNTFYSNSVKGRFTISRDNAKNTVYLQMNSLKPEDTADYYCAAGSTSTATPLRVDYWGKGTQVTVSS
Method: (§1) Surface Plasmon Resonance of mAbs. FC5 and FC5DIE3IR proteins were SEC purified using a Superdex 75 column (GE Healthcare) connected to an AKTAPurifier (GE Healthcare) in HBS-EP+ running buffer (10 mM HEPES, pH 7.4, containing 150 mM NaCl, 3 mM EDTA and 0.05% P20) at a flow rate of 1 ml/min. Monomeric eluted peaks were used to flow over Fc-capture 3A8 mAb surfaces. To prepare the 3A8 mAb surfaces, approximately 6000 RUs of anti-mouse IgG (GE Healthcare) was first immobilized on CM5 Series S sensor chips (GE Healthcare) at pH 5.0, using standard amine coupling methods previously reported (Hussack et al., 2011) and according to the manufacturer's instructions (GE Healthcare). HBS-EP running buffer used for SPR experiments. The mAb 3A8 was captured on the anti-mouse IgG surface using 10 μg/ml of mAb, 30 sec contact time and flow rate of 10 μl/min. IMAC-purified DI-D VHH was passed through a Superdex 75 (GE Healthcare) column for SEC purification in HBS-EP buffer (10 mM HEPES, pH 7.4, containing 150 mM NaCl, 3 mM EDTA and 0.005% P20), connected to an AKTAPurifier (GE Healthcare) at a flow rate of 1 ml/min. Test binding experiments of FC5 control and FC5DIE3IR involved flowing 1 μM concentrations of SEC-pure material over the mAb surface at a flow rate of 30 μl/min for 5 min. Surfaces could be regenerated using 10 mM glycine, pH 1.7, with a 120 sec pulse at 20 μl/min. All SPR experiments were evaluated with Biacore T200 Software v 3.0. For kinetic analysis, single cycle kinetic analysis was used by flowing a range of FC5DIE3IR concentrations (320 nM-20 nM) at a flow rate of 30 μl/min, with 600 sec contact time and 1200 sec dissociation. Regeneration conditions were the same as above. Data were fit to a 1:1 binding model and analyzed using the Biacore T200 Software v3.0.
(§2) Surfaces were regenerated by washing with running buffer (HBS-EP). Data were analyzed with BIAevaluation 4.1 software as described (Hussack et al., 2011) and affinities determined using the steady state binding model.
(§3) Surface Plasmon Resonance (SPR) for monoclonal antibodies.

FC5DIE3IR [4] = target: T1, FC5DIE3IR (Homo sapiens, UniProt Q15858); assay: Hydrogen-Deuterium Exchange Mass Spectrometry (HDX-MS); assay type: binding; settings: labelling 1, 10 and 60 min
T1 construct: The supernatant was collected and loaded on a 5 ml MabSelect™ SuRe™ column; made in house; host or cells: CHO-3E7 (transient, pTT5 vector), purified from supernatant

CHO-3E7 = assay: Cell-ELISA on live CHO-3E7 cells; assay type: cell-based, Chinese hamster; settings: hybridoma supernatant; OD450 nm; duplicate 1
Method: Cell-ELISA. Sterile 96-well plates (Costar #3595) were pre-treated with 50 μl/well of branched polyethyleneimine (PEI, Sigma Cat #408727) at 25 μg/ml in PBS for 30 min at room temperature. PEI was removed and CHO-3E7 or hNAv1.7-CHO (ChanTest cat #CT4003) were seeded at 6×10^5 cells per well in FreeStyle F17 Expression Medium (Gibco Cat #A1383501) and incubated overnight at 37° C., 5% CO2. Microplates were blocked with Starting block (Thermofisher Cat #37538) for 30 min at room temperature, and 50 μl of hybridoma supernatants were added and incubated at 4° C. for 3 h. Plates were washed 5 times with PBS and incubated for one hour at 4° C. with 50 μl of secondary antibody HRP-conjugated F(ab′)2 goat anti-mouse IgG (H+L) (Jackson Immunoresearch #115-036-062) diluted 1/5000 in blocking buffer. After 10 washes with PBS, 50 μl of TMB substrate solution (Pierce Cat #34021) was added and further incubated for 60 min at room temperature. Twenty-five μl/well of stop solution ([…] 1M) was added and OD450 nm measurements were done using a microplate reader (Spectramax 340 PC, Molecular Devices).

hNav1.7 channels = hNav1.7 channels (Homo sapiens, UniProt Q15858, W1161R); assay: Patch-clamp whole-cell recordings in hNav1.7-HEK293 cells; assay type: cell-based; settings: example recordings; 1-3 μM
FC5DIE3IR [5] = target: T1, FC5DIE3IR; assay: Evaluation of apparent affinity of purified mAbs in ELISA; assay type: binding; settings: purified mAb, OD 405 nm
Method: Screening. Hybridoma supernatants were screened by ELISA to detect specific binders. To this end, 96-well half-area plates (Costar #3690) were coated with 25 μl of FC5DIE3IR or FC5-VHH or FC5-hFc-1X0 at 5 μg/ml in PBS and incubated overnight at 4° C. Microplates were washed 3 times with PBS, blocked with PBS-BSA 1%, and 25 μl of hybridoma supernatants were added and incubated at 37° C., 5% CO2 for 2 hours. Plates were washed 4 times with PBS-Tween 20 0.05% and incubated for one hour at 37° C., 5% CO2 with 25 μl of secondary antibody alkaline phosphatase conjugated F(ab′)2 goat anti-mouse IgG Fc-gamma specific (Jackson Immunoresearch #115-056-071) diluted 1/3000 in blocking buffer. After 4 washes with PBS-Tween 20 0.05%, 25 μl of a 1 mg/ml pNPP substrate solution was added and further incubated for one hour at 37° C. OD405 nm measurements were done using a microplate reader (Spectramax 340 PC, Molecular Devices).
Evaluation of apparent affinity in ELISA. Purified antibodies were assessed for their binding activity by ELISA in a dose-dependent binding curve. […] The data were analyzed with GraphPad Prism software using one-site specific binding-with Hill slope non-linear regression curve fit model to determine Bmax (maximum specific binding) and Kdapp (concentration needed to achieve a half-maximum binding at equilibrium) for each mAb tested. […]

FC5DIE3IR [6] = target: T1, FC5DIE3IR; assay: Surface Plasmon Resonance of mAbs, FC5DIE3IR; assay type: binding; settings: Fc-captured mAb, FC5-DIE3IR flowed; SCK; 25 °C
Method: as §1, §2, §3

Molecule | Reduction of colony formation [1] [%] | Reduction of the number of lung metastasis [2] [%] | Reduction of colony formation (glioblastoma U87MG cells) | Reduction of colony formation [3] [%] | Binding to FC5 control (comment, in words) (VHH FC5; SPR) | ka (VHH FC5; target FC5) [M⁻¹ s⁻¹] | kd (VHH FC5; target FC5) [s⁻¹] | Stabilization of FC5DIE3IR in response to mAb binding (residues, differential HDX-MS) (FC5DIE3IR [4]) | ELISA on live cells (duplicates) CHO-3E7 (CHO-3E7) | Effect on hNav1.7 currents (in words) (hNav1.7 channels) | Bmax (maximum specific binding) (FC5DIE3IR [5]) | ka (FC5DIE3IR [6]) [M⁻¹ s⁻¹] | kd (FC5DIE3IR [6]) [s⁻¹]
NC1=N[C@H](O)[C@H]2[C@H]3O[C@]4(O)O[C@@H]([C@@H](O)[C@@]2(N1)[C@@H]4O)[C@]3(O)CO [TTX, tetrodotoxin, reference compound] | 55 | > 40 | 75% and 84% | 70 | – | – | – | – | – | – | – | – | –
B1 | – | – | – | – | Binding to both | 289000 | 0.017 | no effect on conformational stability | 0.008 | no effect; also recorded: did not reduce hNav1.7 currents | 1.7 | 72900 | 0.0136
